Laboratory results from patent publication US9023604 (IBA, dated 2015).
Residue numbers refer to the chain shown, from its start. In names and notes the source's numbering stands.

B1: 13B8.2 Fab fragment (variable domains of murine anti-CD4 antibody 13B8.2, human CH1 gamma1 and human kappa constant domains), heavy chain fused to One-STrEP-tag (Fab, V domains shown)
VH: QVQLKQSGPGLVQPSQSLSITCTVSGFSLTTFGVHWVRQSPGKGLEWLGVIWRSGITDYNVPFMSRLSITKDNSKSQVFFKLNSLQPDDTAIYYCAKNDPGTGFAYWGQGTLVTVSA
VL: DIQMTQSPASLSASVGETVTFTCRASEMIYSYLAWYQQKQGKSPQLLVHDAKTLAEGVPSRFSGGGSGTQFSLKINTLQPEDFGTYYCQHHYGNPPTFGGGTKLEIKR
notes: Expressed in the E. coli periplasm; Stained as a monomer or multimerized on Strep-Tactin PE; also called CD4 wt (13B8.2); 13B8.2 wildtype (wt) Fab fragment
B2: Mutant 13B8.2 Fab fragment with His at position 91 of the light chain mutated to Ala, heavy chain fused to One-STrEP-tag (Fab, V domains shown)
VH: B1 VH
VL: B1 VL with H91A
notes: also called CD4 mutant 4 (H91A); mutant 4
B3: Mutant 13B8.2 Fab fragment with His at position 35 of the heavy chain mutated to Ala, heavy chain fused to One-STrEP-tag (Fab, V domains shown)
VH: B1 VH with H35A
VL: B1 VL
notes: also called CD4 mutant 3 (H35A); mutant 3
B4: Mutant 13B8.2 Fab fragment with Phe at position 100 of the heavy chain mutated to Ala, heavy chain fused to One-STrEP-tag (Fab, V domains shown)
VH: B1 VH with F104A
VL: B1 VL
notes: also called CD4 mutant 1 (F100A); F100K-H
B5: Mutant 13B8.2 Fab fragment with Tyr at position 92 of the light chain mutated to Ala, heavy chain fused to One-STrEP-tag (Fab, V domains shown)
VH: B1 VH
VL: B1 VL with Y92A
notes: also called CD4 mutant 2 (Y92A); mutant 2

Each binder was assayed against T1, CD4 cell surface receptor molecule on peripheral blood mononuclear cells (PBMCs) (human, UniProt P01730 26-458) (assay: flow cytometry, PBMCs, live CD3+ T cells; column 'Fab multimer -> D-biotin': Fab-multimer staining analysed after treatment with D-biotin).
T1 construct: whole, on cells; also called CD4 receptor molecule
Method: (§1) Remaining Fab-monomers (i.e. Fab fragments used as receptor binding reagent) on the target cell surface were then detected after subsequent washing steps to remove […] using Strep-Tactin PE alone (without bound Fab fragments) (fourth column). Fab-multimer staining after the reversible staining described above of the cells was performed again (fifth column) to control completion of biotin removal which otherwise would have hampered the staining of remaining Fab-monomers with Strep-Tactin PE alone (without bound Fab fragments) as shown in the fourth column and which thus would have led to a wrong conclusion of the experiment. Alternatively, cells were incubated with monomeric Fab-fragments, washed and subsequently analyzed after staining with Strep-Tactin® PE (first, i.e. left-most column). Live CD3^+ T cells are shown. Numbers in the dot plots indicate the percentage of cells within gates.
(§2) For staining of a CD4 receptor molecule specific target cell population in a mixture of cells, Strep-Tactin® labeled with phycoerythrine as a fluorescent label (IBA GmbH, Göttingen, Germany) was used as multimerization reagent together with the monomeric CD4 binding Fab-One-STrEP fragment of the variants of the antibody 13B8.2 (that served as receptor binding reagent) as described below. For FACS analysis 5×10^6 PBMCs were incubated with Fab multimers consisting of 0.2 μg Fab-fragment (comprising binding site B) equipped with the One-STrEP-tag (binding partner C) as receptor binding reagent and 0.75 μg Strep-Tactin® PE (IBA GmbH, Göttingen, Germany) as multimerization reagent using the protocol below. In addition, after FACS separation, the multivalent complexes were disrupted in a portion of each of the stained cells by addition of biotin as described below. Control antibody stainings were performed by concomitant application of the respective antibody: anti-CD4 (OKT4) (from eBiosciences, San Diego, Calif., USA). After the staining procedure of the present invention, cells were subsequently stained with propidium iodide for live/dead discrimination.
(§3) For staining and dissociation experiments, 5 ×10^6 PBMCs were incubated with the respective anti-CD4 Fab-multimer-Strep-Tactin® PE complexes or with the corresponding Fab-monomers (the latter not complexed with Strep-Tactin® PE).

Binder | percentage of cells within gate [%]
B1 | 0.041
B2 | 0.017
B3 | 0.041
B4 | 0.014
B5 | 0.034

The binders below were run against T1, CD4 cell surface receptor molecule on … (assay: flow cytometry, PBMCs, live CD3+ T cells; column 'Fab multimer': Fab multimerized on Strep-Tactin PE).
Method: as §1, §2
Protocol for Staining of 5×10^6 Cells with Receptor Binding Reagent and Multimerization Reagent 1. 0.75 μg Strep-Tactin PE were incubated with 0.2 μg monomeric CD4 binding Fab-One-STrEP fragment for 30 minutes at 4° C. in the dark. 2.

Binder | percentage of cells within gate [%]
B1 | 23.3
B2 | 23.1
B3 | 23.4
B4 | 23
B5 | 14.7

These binders were tested against T1, CD4 cell surface receptor molecule on … (assay: flow cytometry, PBMCs, live CD3+ T cells; column 'Fab multimer -> D-biotin -> Fab multimer': second Fab-multimer staining after D-biotin and washing).
From the text: as §1, with “Peripheral Blood Mononuclear Cells (PBMCs) were stained with anti-CD4 Fab fragments (receptor binding reagent) fused to a sequential arrangement of two Strep-tag® sequences (commercially available under the trade name "One-STrEP-tag"; binding partner C) and multimerized on phycoerythrin labeled Strep-Tactin® (Strep-Tactin PE; IBA GmbH, Göttingen, Germany; multimerization reagent comprising at least 2 binding sites Z for the binding partner C) and analyzed either before (second column) or after treatment with D-biotin (third column). Remaining” for “Remaining”
as §3

Binder | percentage of cells within gate [%]
B1 | 18.8
B2 | 20
B3 | 19.3
B4 | 19.2
B5 | 18.8

The binders below were run against T1, CD4 cell surface receptor molecule on … (assay: flow cytometry, PBMCs, live CD3+ T cells; column 'Fab monomer -> ST-PE': cells incubated with monomeric Fab, washed, then stained with Strep-Tactin PE; y axis CD4 Fab-multimer / Fab-monomer, x axis CD8).
From the text: as §1, with “Peripheral Blood Mononuclear Cells (PBMCs) were stained with anti-CD4 Fab fragments (receptor binding reagent) fused to a sequential arrangement of two Strep-tag® sequences (commercially available under the trade name "One-STrEP-tag"; binding partner C) and multimerized on phycoerythrin labeled Strep-Tactin® (Strep-Tactin PE; IBA GmbH, Göttingen, Germany; multimerization reagent comprising at least 2 binding sites Z for the binding partner C) and analyzed either before (second column) or after treatment with D-biotin (third column). Remaining” for “Remaining”
(§4) For staining and dissociation experiments, 5 ×10^6 PBMCs were incubated with the respective anti-CD4 Fab-multimer-Strep-Tactin® PE complexes or with the corresponding Fab-monomers (the latter not complexed with Strep-Tactin® PE). […] After D-biotin-mediated disruption of the multimeric complexes (FIG. 2, third column) and subsequent washing, the cells were probed for residual surface-bound Fab fragments by the addition of Strep-Tactin® PE alone (without bound Fab) (FIG. 2, fourth column).

Binder | percentage of cells within gate [%]
B1 | 20
B2 | 0.0039
B3 | 0.007
B4 | 19.9
B5 | 0.0022

Each binder was assayed against T1, CD4 cell surface receptor molecule on … (assay: flow cytometry, PBMCs, live CD3+ T cells; column 'Fab multimer -> D-biotin -> ST-PE': after D-biotin and washing, remaining Fab monomers detected with Strep-Tactin PE alone).
From the text: as §1, with “Peripheral Blood Mononuclear Cells (PBMCs) were stained with anti-CD4 Fab fragments (receptor binding reagent) fused to a sequential arrangement of two Strep-tag® sequences (commercially available under the trade name "One-STrEP-tag"; binding partner C) and multimerized on phycoerythrin labeled Strep-Tactin® (Strep-Tactin PE; IBA GmbH, Göttingen, Germany; multimerization reagent comprising at least 2 binding sites Z for the binding partner C) and analyzed either before (second column) or after treatment with D-biotin (third column). Remaining” for “Remaining”
as §4

Binder | percentage of cells within gate [%]
B1 | 16.1
B2 | 0.00284
B3 | 0.019
B4 | 16.4
B5 | 0.0017
